Measurements: article doi:10.1101/2023.12.01.569227 (bioRxiv, 2023)

How the values were obtained:
SARS-CoV-1 RBD = SARS-CoV-1 RBD (SARS-CoV-1 (SARS-CoV), Urbani, UniProt P59594, biotinylated with an EZ-Link NHS-PEG4 biotinylation kit); assay: BLI
SARS-CoV-2 RBD = SARS-CoV-2 RBD (SARS-CoV-2, Wuhan-Hu-1, UniProt P0DTC2, biotinylated with an EZ-Link NHS-PEG4 biotinylation kit); assay: BLI

| Binder | binding result (SARS-CoV-1 RBD) | fold weaker binding than to SARS-CoV-1 RBD (SARS-CoV-2 RBD) [fold] |
| --- | --- | --- |
| VHH-72 (VHH) VHH: QVQLQESGGGLVQAGGSLRLSCAASGRTFSEYAMGWFRQAPGKEREFVATISWSGGSTYYTDSVKGRFTISRDNAKNTVYLQMNSLKPDDTAVYYCAAAGLGTVVSEWDYDYDYWGQGTQVTVSS | binds | > 5 |
| Seq8 (VHH) VHH: QVQLQESGGGLVQAGGSLRLSCAASGYGFSEYAMGWFRQAPGKEREFVATISWSGRSTYYTDSVKGRFTISRDNAKNTVYLQMNSLKPDDTAVYYCARAGWGVVVSEWDYDYDYWGQGTQVTVSS | binds |  |
| Seq1 (VHH) VHH: QVQLQESGGGLVQAGGSLRLSCAASGRTFSETAMGWFRQAPGKEREFVATISWSGRGTYYTDSVKGRFTISRDNAKNTVYLQMNSLKPDDTAVYYCAYAGYGVVVSEWDYDYDYWGQGTQVTVSS | binds |  |
| Seq11 (VHH) VHH: QVQLQESGGGLVQAGGSLRLSCAASGRKFSEYAMGWFRQAPGKEREFVATISWSGRLTYYTDSVKGRFTISRDNAKNTVYLQMNSLKPDDTAVYYCAGAGYGVVVSEWDYDYDYWGQGTQVTVSS | binds |  |
| Seq4 (VHH) VHH: QVQLQESGGGLVQAGGSLRLSCAASGRSFSEYAMGWFRQAPGKEREFVATISWSGRATYYTDSVKGRFTISRDNAKNTVYLQMNSLKPDDTAVYYCARAGYGVVVSEWDYDYDYWGQGTQVTVSS | binds |  |
| Seq7 (VHH) VHH: QVQLQESGGGLVQAGGSLRLSCAASGLKFSETAMGWFRQAPGKEREFVATISWSGRSTYYTDSVKGRFTISRDNAKNTVYLQMNSLKPDDTAVYYCARAGYGVVVSEWDYDYDYWGQGTQVTVSS | binds |  |
| Seq3 (VHH) VHH: QVQLQESGGGLVQAGGSLRLSCAASGRMFSETAMGWFRQAPGKEREFVATISWSGRGTYYTDSVKGRFTISRDNAKNTVYLQMNSLKPDDTAVYYCAGAGYGVYVSEWDYDYDYWGQGTQVTVSS | binds |  |
| Seq2 (VHH) VHH: QVQLQESGGGLVQAGGSLRLSCAASGRGFSEYAMGWFRQAPGKEREFVATISWSGGGTYYTDSVKGRFTISRDNAKNTVYLQMNSLKPDDTAVYYCARAGFGVWVSEWDYDYDYWGQGTQVTVSS | binds |  |
| Seq5 (VHH) VHH: QVQLQESGGGLVQAGGSLRLSCAASGRMFSEYAMGWFRQAPGKEREFVATISWSGKGTYYTDSVKGRFTISRDNAKNTVYLQMNSLKPDDTAVYYCARAGFGVYVSEWDYDYDYWGQGTQVTVSS | binds |  |
| Seq6 (VHH) VHH: QVQLQESGGGLVQAGGSLRLSCAASGRLFSEYAMGWFRQAPGKEREFVATISWSGRSTYYTDSVKGRFTISRDNAKNTVYLQMNSLKPDDTAVYYCAKAGWGVVVSEWDYDYDYWGQGTQVTVSS | binds |  |
